The target of test [1] is T1, hemagglutinin of A/Vietnam/1203/04 (H5N1) on virus (influenza A virus H5N1, …, UniProt Q80A26 6-557). Description: inferred from HI and virus neutralization assays.
In test [2] the target is T1, hemagglutinin of A/Vietnam/1203/04 …. Nature of the test: HI assay.

B1: VN04-3 (antibody, V domains shown)
VH: QVQLQESGPDLVKPGASVMISCKASGYSFTYYYMHWVKQSHGKTLEWIGRIYPYNGDTNYNRRFKDKAILTVDESSSTAYMELRSLTSEDSAVYFCARDANYEGDWYFDVWGQGTTVTVSS
VL: DIQMTQSPSSFSVSLGDRVTITCKASEDIYNRVAWYQQKPGNAPRLLMSDATSLGAGVPSRFSGSGSGKDHTLSITSLQTEDVATYYCQQYWNTRTFGGGTKLEIKR
Regarding B1, in test [1], the binding result is “binds”.

B2: VN04-3-huG1 (antibody, V domains shown)
VH: B1 VH
VL: B1 VL
For B2, the binding result in test [2] is recorded as “binds”.

The record behind these values is US20100150941A1 (DSO NATIONAL LABORATORIES, published 2010).
